Assay results taken from the Human Domainome abundance scans (Beltran et al. 2025).
± gives the uncertainty stated by the source.

B1: Double-stranded RNA-binding protein Staufen homolog 1, residues 183 to 249; numbered along this chain, O95793 (parent)
chain: KSEISQVFEIALKRNLPVNFEVARESGPPHMKNFVTKVSVGEFVGEGEGKSKKISKKNAAIAVLEEL

Variants of: B1
Test: abundance fitness (aPCA) (normalised: wild type 0, dead -1); higher = more abundant; growth selection in yeast, the domain comes from the species named
Conditions: Homo sapiens

| Variant | abundance fitness |
| --- | --- |
| F8K | -0.135 ± 0.055 |
| F8W | 0.064 ± 0.047 |
| F8T | -0.337 ± 0.048 |
| N33W | -0.054 ± 0.064 |
| N33H | 0.016 ± 0.11 |
| K13F | -0.436 ± 0.11 |
| G49T | -0.8 ± 0.065 |
| G49M | -0.729 ± 0.056 |
| R24G | -0.196 ± 0.037 |
| G45Q | -0.395 ± 0.066 |
| G45R | -0.265 ± 0.04 |
| G45P | -0.975 ± 0.076 |
| L67W | -0.465 ± 0.093 |
| L67N | -0.584 ± 0.18 |
| V7A | -0.781 ± 0.055 |
| V7G | -0.626 ± 0.046 |
| F34S | -0.54 ± 0.045 |
| F34V | -0.541 ± 0.054 |
| F34W | 0.089 ± 0.053 |
| R14A | -0.204 ± 0.057 |
| E25T | 0.016 ± 0.051 |

| Variant | abundance fitness |
| --- | --- |
| E25L | -0.083 ± 0.034 |
| K32E | -0.077 ± 0.07 |
| K32P | -0.099 ± 0.06 |
| K32Q | -0.129 ± 0.061 |
| G27L | -0.418 ± 0.036 |
| G27M | -0.395 ± 0.05 |
| G27H | -0.326 ± 0.11 |
| G27D | -0.259 ± 0.046 |
| G47H | -0.555 ± 0.11 |
| G47I | -0.897 ± 0.15 |
| G47K | -0.81 ± 0.093 |
| G47T | -0.868 ± 0.082 |
| K57T | 0.17 ± 0.28 |
| K57F | -0.837 ± 0.42 |
| Q6M | -0.169 ± 0.038 |
| V38Y | -0.774 ± 0.11 |
| E65A | -0.038 ± 0.042 |
| E65G | -0.079 ± 0.043 |
| E65D | -0.081 ± 0.069 |
| E48L | -0.044 ± 0.044 |
| E48N | -0.045 ± 0.07 |

| Variant | abundance fitness |
| --- | --- |
| K53E | -0.049 ± 0.058 |
| K53R | -0.042 ± 0.04 |
| A11W | -0.91 ± 0.095 |
| A11S | -0.358 ± 0.048 |
| A11V | -0.892 ± 0.065 |
| E21Y | -0.172 ± 0.076 |
| E21K | -0.049 ± 0.066 |
| E42C | -0.161 ± 0.06 |
| H30L | -0.255 ± 0.037 |
| H30S | -0.114 ± 0.043 |
| H30R | -0.077 ± 0.039 |
| S39Q | -0.034 ± 0.054 |
| S39W | -0.119 ± 0.053 |
| S39A | -0.067 ± 0.041 |
| S39Y | -0.051 ± 0.075 |
| S39F | -0.099 ± 0.057 |
| S39I | -0.12 ± 0.08 |
| G41W | -0.825 ± 0.12 |
| G41T | -1.17 ± 0.11 |
| P29C | -0.198 ± 0.056 |
| P29Y | -0.259 ± 0.073 |

| Variant | abundance fitness |
| --- | --- |
| I54A | -0.063 ± 0.042 |
| I54P | -0.724 ± 0.073 |
| I54C | -0.26 ± 0.052 |
| K37I | -0.529 ± 0.21 |
| N15A | -0.198 ± 0.056 |
| N15M | -0.296 ± 0.093 |
| N15H | 0.006 ± 0.12 |
| N15L | -0.531 ± 0.065 |
| E66T | -0.042 ± 0.049 |
| E66F | 0.103 ± 0.11 |
| E66V | 0.077 ± 0.04 |
| E66L | 0.114 ± 0.038 |
| F43I | -0.197 ± 0.1 |
| F43M | -0.255 ± 0.077 |
| F43S | -0.272 ± 0.05 |
| P17H | -0.093 ± 0.089 |
| N19V | -0.101 ± 0.048 |
| N19R | 0.077 ± 0.044 |
| L12I | -0.026 ± 0.22 |
| I4N | -0.56 ± 0.094 |
